Article PMC5834491, “CryoEM structure of the human SLC4A4 sodium-coupled acid-base transporter NBCe1” (Nature Communications, 2018)

Molecular target: the molecule itself
Assay: cryo-EM structure; single-particle cryoEM of NBCe1-A (~0.4 mg/ml) in amphipol PMAL-C8, 20 mM Tris-HCl pH 7.5, 150 mM NaCl; C2 symmetry imposed; 3.9 Å

B1: Human N-terminally Strep(II)-tagged wild-type NBCe1-A (SLC4A4 sodium-bicarbonate cotransporter) (natural protein, UniProt Q9Y6R1-2 1-1035, looked up)
chain: MSTENVEGKPSNLGERGRARSSTFLRVVQPMFNHSIFTSAVSPAAERIRFILGEEDDSPAPPQLFTELDELLAVDGQEMEWKETARWIKFEEKVEQGGERWSKPHVATLSLHSLFELRTCMEKGSIMLDREASSLPQLVEMIVDHQIETGLLKPELKDKVTYTLLRKHRHQTKKSNLRSLADIGKTVSSASRMFTNPDNGSPAMTHRNLTSSSLNDISDKPEKDQLKNKFMKKLPRDAEASNVLVGEVDFLDTPFIAFVRLQQAVMLGALTEVPVPTRFLFILLGPKGKAKSYHEIGRAIATLMSDEVFHDIAYKAKDRHDLIAGIDEFLDEVIVLPPGEWDPAIRIEPPKSLPSSDKRKNMYSGGENVQMNGDTPHDGGHGGGGHGDCEELQRTGRFCGGLIKDIKRKAPFFASDFYDALNIQALSAILFIYLATVTNAITFGGLLGDATDNMQGVLESFLGTAVSGAIFCLFAGQPLTILSSTGPVLVFERLLFNFSKDNNFDYLEFRLWIGLWSAFLCLILVATDASFLVQYFTRFTEEGFSSLISFIFIYDAFKKMIKLADYYPINSNFKVGYNTLFSCTCVPPDPANISISNDTTLAPEYLPTMSSTDMYHNTTFDWAFLSKKECSKYGGNLVGNNCNFVPDITLMSFILFLGTYTSSMALKKFKTSPYFPTTARKLISDFAIILSILIFCVIDALVGVDTPKLIVPSEFKPTSPNRGWFVPPFGENPWWVCLAAAIPALLVTILIFMDQQITAVIVNRKEHKLKKGAGYHLDLFWVAILMVICSLMALPWYVAATVISIAHIDSLKMETETSAPGEQPKFLGVREQRVTGTLVFILTGLSVFMAPILKFIPMPVLYGVFLYMGVASLNGVQFMDRLKLLLMPLKHQPDFIYLRHVPLRRVHLFTFLQVLCLALLWILKSTVAAIIFPVMILALVAVRKGMDYLFSQHDLSFLDDVIPEKDKKKKEDEKKKKKKKGSLDSDNDDSDCPYSEKVPSIKIPMDIMEQQPFLSDSKPSDRERSPTFLERHTSC
notes: Electrogenic sodium bicarbonate cotransporter 1, NBCe1-A variant, human, full length; Only the membrane domain was modelled (474 residues per protomer); Met1-Gly400, Cys583-Leu637, Ser713-Trp734, Glu814-Lys825 and Asp966-Cys1035 were not modelled. numbers count on: the NBCe1-A isoform (1035 residues); Homodimer in amphipol PMAL-C8; The pTT vector is named (Addgene), no plasmid number is printed; …
stoichiometry N: 2
